Data on one substance can be found in article PMC3236198.

This test concerns the target ΔC SSB (Escherichia coli) (UniProt P0AGE0). Nature of the test: SEC. (SEC sorts molecules by how far they enter the pores of the column.)

Regarding “ΔC SSB (from UniProt P0AGE0 1-113) (domain or fragment)”, the stoichiometry N (in general, the number of molecules, sites or subunits per partner or assembly) was 4.
